# Assay results reported in the nanobody polyreactivity screen of Harvey et al. (2022).
# Test: yeast display, Sf9 membrane polyspecificity reagent, FACS + sequencing; frameworks hold sequencing errors
# Summary of the method: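 Genes from sorted yeast were amplified by colony PCR, read by MiSeq 2 × 250 sequencing and filtered on CDR length. These cells carried a synthetic nanobody library in Saccharomyces cerevisiae BJ5465 and were sorted by FACS into low and high (top ~1%) gates on anti-HA and streptavidin fluorescence. Polyreactivity is labelled according to the gate of origin.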
row,Sequence,polyreactivity (PSR sort gate)
1,QVQLEESGGGLVQAGGSLRLSCAASGFTFRRYDMGWYRQAPGKERELVATINRGGSTDSADSVKGRFTISRDNAKNTVYLQMNSLKPEDTAVYYCATRYYSSRTWSEYYYWGQGTQVTVSS,high polyreactivity
2,QVQLEESGGGLVQAGGSLRLSCAASGFTFSHNAMGWYIQAPGKERELVAAITRDSGSTYYADSVKGRFTISRDNAKNTVYLQMNSLTPEDTAVYYCAADIASGYYWYDYWGQGTQVTVSS,low polyreactivity
3,QVQLEESGGGLVQAGGSLRLSCAASGFTFWRYGMGWYRQAPRKERELVASITSGGGTNYADSVKGRFTISRDNAKNTVYIQMNSLKPEDTAVYYCNAVFFYHGTKPAFISHDYWGQGTQVTVSS,low polyreactivity
4,QVQLEESGGGLVQAGGSLRLSCAASGGIFLGYAMGWYRQAPGTERELVAAISDSGGSTDYADSVKGRFTISRDHAKTTVYLQTHSLKPDDTAVYYCAAERRSTAGWLYDYWGQGTQVTVSS,high polyreactivity
5,QVQLEESGGGLVQAGGSLRLSCAASGGTFAQYVMGWYRQAPGKERELVAAISRTGGRTYYADSVKGRFTISRDNAKNTVYLQMNSLKPEDTAVYYCARVYTSYGTPWTNYDYWGQGTQVTVSS,high polyreactivity
6,QVQLEESGGGLVQAGGSLRLSCAASGGTFYAYAMGWYRQAPGKERELVAAITRSGGRTYYADSVKGRFTISRDNAKNTVYLQMNSLKPEDTAVYYCAADPHHYSGLDYWGQGTQVTVSS,low polyreactivity
7,QVQLEESGGGLVQAGGSLRLSCAASGIIFGRYTMGWYREAPGKERELVAAITSSGITYYADSVKGRFTISRDNAKNTVYLQMNSLKPEDTAVYYCAADSPVSVTADDGYWGQGTQVTVSS,low polyreactivity
8,QVQLEESGGGLVQAGGSLRLSCAASGIIFQRNDMGLYRQAPGKERELVANIRDGGITYADSVKGRFTISRDNAKNTVYLQMNSLKPEDTAVYYCARDDTSPGYCDQSSNAAYYYWGQGTQVTVSS,low polyreactivity
9,QVQLEESGGGLVQAGGSLRLSCAASGIIFWYYAMGWSRQAPGKERELVAAINSGDSTNYADSVKGRYTISRDNAKNTVYLQMNSLKPEDTAVYYCATVSSYTGGYWGQGTQVTVSS,low polyreactivity
10,QVQLEESGGGLVQAGGSLRLSCAASGITFERYVMGWYRQAPGKERELVASISRSGSTYYADSVKGRFTISRDNAKNTVYLQMNSLKPEDTAVYYCNADRFWFHWVYSRYHYDYWGQGTQVTVSS,high polyreactivity
11,QVQLEESGGGLVQAGGSLRLSCAASGITFFHYAMGWSRPAPGKERELVAAITWRGSSTYYADSVKGRFTMSRDNAKNTVYLQMNSLKPEDTAVYYCNAEVGYYEYDYWGQGTQVTVSS,high polyreactivity
12,QVQLEESGGGLVQAGGSLRLSCAASGITFLRNAMGWYSQAPGKERELVAAISRSGGRTYYADSVKGRFTISRDNAQNTVYLQMNSLKPEDTAVYYCAVVTQFGDGYYWGQGTQVTVSS,high polyreactivity
13,QVQLEESGGGLVQAGGSLRLSCAASGITFLTYAMGWYRQATVKERELVAGITSGGTTYYADSVKGRFTISRDNAMNTVYLQMNSLKPEDTAVYYCNADLQEYQSYDYWGQGTQVTVSS,low polyreactivity
14,QVQLEESGGGLVQAGGSLRLSCAASGLIFIYNTMGWYRQAPGKERQLVAAISGRGGSTYYADSVKGRFTISRDNAKNSVYLQMNSLKPEDTAVYYCAAQDTYHSYGLYSWGQGTQVTVSS,low polyreactivity
15,QVQLEESGGGLVQAGGSLRLSCAASGLTFATYAIGWYRQAPGKERELVAAISRSGGRTYFADSVKGRFTISRDNAKNTVYLQMNSLKPEDTAVYYCNADFYASDDYWGQGTQVTVSS,high polyreactivity
16,QVQLEESGGGLVQAGGSLRLSCAASGLTFEWYTMGWYRQAPGKERELVAVITVSGSSTYYADSVKGRFSISRDNAKNTVYLQMNSLKPEDTAVYYCNADWSFYSYTLYDYWGQGTQVTVSS,low polyreactivity
17,QVQLEESGGGLVQAGGSLRLSCAASGLTLYKNGMGWYRQSPGKERELVAVISRSGGRTYYADSVKGRFTISRDNAKNTVYLQMNSLKPDDTAVYYCAARQYGPRYTYYYWGQGTQVTVSS,high polyreactivity
18,QVQLEESGGGLVQAGGSLRLSCAASGNIFLIYAMGWYRQAPRKEVEMVAAISFSDDTTDYADSVKGRFTSSRDNAKNTVYLQLNSLKQEDTAVYFCAAELYYDVANTQYDYWGQGTQVTVSS,high polyreactivity
19,QVQLEESGGGLVQAGGSLRLSCAASGNIFWGNAMGWYRQAPGKEMELVAAITSIDSSTYYADSVKGRFTISRDNAKNTVYLQMNSLKPEDTAVYYCAADGDWYGYIWQSDDGYDSWGQGTQVTVSS,low polyreactivity
20,QVQLEESGGGLVQAGGSLRLSCAASGRIFDVNAMGWYRQAPGKERELVPRITSDGGTYYADSVKGRFTISRDNAKNTVYLQMNSLKPEDTAVYYCNAPYWFSPGYGGFEFGYDYWGQGTQVTVSS,low polyreactivity
21,QVQLEESGGGLVQAGGSLRLSCAASGRIFEYYAMGWYRQAPGIERELVAAINTGGNTYYADSVKGRFTISRDNAKNTVYLQMNSLKPEDTAVYYCATYPIWYGGYLSGTDYDYWGQGTQVTVSS,low polyreactivity
22,QVQLEESGGGLVQAGGSLRLSCAASGRIFGGYAMGWYRQAPGKERELVAAISRNGGNTYYADSVKGRFTISRDNAKNTVYLQMNSLKPEDTAVYYCAATYDGTYDYWGQGTQVTVSS,high polyreactivity

row,Sequence,polyreactivity (PSR sort gate)
1,QVQLEESGGGLVQAGGSLRLSCAASGRIFKRYAMGWYRQAPGKERELVAAITWSGTRTYYADSVKGRFTISRDNAKNTVYLQMNSLKPEDTAVYYCAADQKYHQRPSEYGYWGQGTQVTVSS,high polyreactivity
2,QVQLEESGGGLVQAGGSLRLSCAASGRIFPYYTMGWYRQAPGKERELVAAISWSGGSTYYADSVKGRFTISRDNAKNTVYLQMNSLKPEDTAVYYCNVRKVYRYQYRFEYWGQGTQVTVSS,high polyreactivity
3,QVQLEESGGGLVQAGGSLRLSCAASGRIFSYNAMGWSIPAPGKERELVAAISYSGGRTYYADSVKGRFTISRDNAKNTVYLQMNSLKPEDTAVYYCAAKRKIRGYGPYEYWGQGTQVTVSS,high polyreactivity
4,QVQLEESGGGLVQAGGSLRLSCAASGRIFYLNAIGWYRQAPRKATELVAAINTSGDSTYYADSVKGRFTISRDNAKNTVYLQMNSLKPEDTAVYYCAAFGIGPDQFIYDYWGQGTKVTVSS,low polyreactivity
5,QVQLEESGGGLVQAGGSLRLSCAASGRIFYYYTMGWYRQAPGKERELVAAISWGGVNTDYADSVKGRFTISRDNAKNTVYLQMNSLKPEDTAVYYCAAGRWSVGTYDYWGQGTQVTVSS,low polyreactivity
6,QVQLEESGGGLVQAGGSLRLSCAASGRNFLYNAMGWYRQAPGKERELVAAITASGGTTYYADSVKGRFTISRDNAKNNVYLQMNSLKPEDTAVYYCNAYSYSGERYYWGQGTQVTVSS,high polyreactivity
7,QVQLEESGGGLVQAGGSLRLSCAASGRTFDRYAMGWYRQAPGKERELVAAITWSGGRTYYADSVKGRFTISRDNPKNTVYLQMNSLKPEDTAVYYCATAYYYHGGYYYPYDVDYWGQGTQVTVSS,low polyreactivity
8,QVQLEESGGGLVQAGGSLRLSCAASGRTFGRNAMGWYRQAPGERELVAVISRGGSTYYADSVKGRFTISRDNAKNSVYLQMNSLIPEDTAVYYCNADTVYTRTAPYDYWGQGTQVTVSS,low polyreactivity
9,QVQLEESGGGLVQAGGSLRLSCAASGRTFITYAMGWYRQAPGKVRELVASITSNGGRTYYADSVKGRFKISRDNAKNTVYLQMNSLKPEYTAVYYCSAGTRSRAPYYRTSVDTYGYWGQGTQVTVSS,low polyreactivity
10,QVQLEESGGGLVQAGGSLRLSCAASGRTFNKNAMGWYRQAPGKERELVAAISYSGGRTYYADSVKGRFTISRDNAKNTVYLQMNSLKPEDTAVYYCAAWGSSYSFDYWGQGTQVTVSS,high polyreactivity
11,QVQLEESGGGLVQAGGSLRLSCAASGRTFSGYAMGSYRQAPGKDRELVAAITRRGGTTYYADSVKGRFTISRDNAKNTVYLQMNSLKPEDTAVYYCAAAKPRVISQKIIYYYWGQGTQVTVSS,high polyreactivity
12,QVQLEESGGGLVQAGGSLRLSCAASGRTFVWYAMGWYRQAPGKERELVAAISRSGGSTYYADSVKGRFTISRDNAKNTVYLQMNSLKPEDTAVYYCAAEFYIAPPYDYWGQGTQVTVSS,high polyreactivity
13,QVQLEESGGGLVQAGGSLRLSCAASGRTFWDNARGWNRQAPGKERELVATITSGDSTNYAASVKGRFTISRDNAKNTVYLQMNSLKPEDTAVYYCARVIVFDAYEFDYWGQGTQVTVSS,low polyreactivity
14,QVQLEESGGGLVQAGGSLRLSCAASGRTFYRYAMGWYRQAPGKERELVATISSRGTSTYYADSVKGRFTISRDNAKNTVYLQMNSLKPEDTAVYYCAVRGYAAGRHGYDYWGQGTQVTVSS,high polyreactivity
15,QVQLEESGGGLVQAGGSLRLSCAASGRTINGNTMGWYRQAPGKERELVAVIDWSGGSTYYADSVKGRFTISRDNAKNTVYLQMNSLKPEDTAVYYWNAETRDPILYGEYDYWGQGTQVTVSS,low polyreactivity
16,QVQLEESGGGLVQAGGSLRLSCAASGRTLGYNAMGWYRQAPGKERELVAAISYGGGGTYYADSVKGRFTISRDNAKNTVYLQMNSLKPEDSAVYYCAKPRAFVGYNHWGQGTQVSVSS,low polyreactivity
17,QVQLEESGGGLVQAGGSLRLSCAASGSIFAVYAKGWYRQAPGKEREFVARISWGGGRTYYADSVKGRFTISRDNAKNTVYLQMNSLKPEDTAVYYCAATFRARPRENYWGQGTQVTVSS,high polyreactivity
18,QVQLEESGGGLVQAGGSLRLSCAASGSIFDPNAMGWYRKAPGKERELVADIDSSDGSTYYADSVKGRFTISRDNAKNTVYLQMNSLKPEDTAVYYCNARYGGWVWSTYDHWGQGTQVTVSS,low polyreactivity
19,QVQLEESGGGLVQAGGSLRLSCAASGSIFEWNDMGWSRQAPGKEREFVAAITSTDDGTYYADSVKGRFTISRDNAKNTVYLQMNSLKPEDTAVYYCAKRAWGSPYGYWGQGTQVTVSS,low polyreactivity
20,QVQLEESGGGLVQAGGSLRLSCAASGSIFIANAMGWYRQAPGKERELVAVINWGDGSTYADSVKGRFTISRDNAKNTVYLQMNSLKPEDTAVYYCNAPDEVNDVRYDYWGQGTQVTVSS,low polyreactivity
21,QVQLEESGGGLVQAGGSLRLSCAASGSIFQINAMGWYRQAPGKERELVAAITRGGGTTYYADSVKGRFTISRDNAKNTVYLQMNSLKPEDTAVYYCAADFERRRYDYWGQGTQVTVSS,low polyreactivity
